Target: the molecule itself
Experiment: SEC

B1: 6xHis-Cdc3 (natural protein)
chain: MSLKEEQVSIKQDPEQEERQHDQFNDVQIKQESQDHDGVDSQYTNGTQNDDSERFEAAESDVKVEPGLGMGITSSQSEKGQVLPDQPEIKFIRRQINGYVGFANLPKQWHRRSIKNGFSFNLLCVGPDGIGKTTLMKTLFNNDDIEANLVKDYEEELANDQEEEEGQGEGHENQSQEQRHKVKIKSYESVIEENGVKLNLNVIDTEGFGDFLNNDQKSWDPIIKEIDSRFDQYLDAENKINRHSINDKRIHACLYFIEPTGHYLKPLDLKFMQSVYEKCNLIPVIAKSDILTDEEILSFKKTIMNQLIQSNIELFKPPIYSNDDAENSHLSERLFSSLPYAVIGSNDIVENYSGNQVRGRSYPWGVIEVDNDNHSDFNLLKNLLIKQFMEELKERTSKILYENYRSSKLAKLGIKQDNSVFKEFDPISKQQEEKTLHEAKLAKLEIEMKTVFQQKVSEKEKKLQKSETELFARHKEMKEKLTKQLKALEDKKKQLELSINSASPNVNHSPVPTKKKGFLR
- stoichiometry N: 2

Source: article PMC9635297 (Molecular Biology of the Cell, 2022)
